Results as given in article PMC7152510 (Nature structural & molecular biology, 2017).
Like-named read-outs stand apart in the source and are kept apart here.

Columns and labels:
[1] = target: ΔMIT katanin p60 (E293Q) (Caenorhabditis elegans); test: solution SAXS
AUC [2] = target: the molecule itself; test: AUC
AUC [3] = target: the molecule itself; test: AUC; remark: listed apart in the source

ΔMIT katanin p60 (E293Q) (domain or fragment)
stoichiometry N [1]: 6

B1: Caenorhabditis elegans katanin p60 (MEI-1), catalytic subunit, wild type (enzyme, UniProt P34808 1-472, looked up)
chain: MNGDVQSVIRGYLERAQVAKTMSDAGRWNEAGDLLRQLMTDVKSCKISASNRDEHDARNTFLRALEANLKLVQQNVRDEDDLHEAMTRQSGSPEPPADPDVWSKPSPPLPSSSKFGATKKGVGAAGPRPREISKSTSSMSTNPADVKPANPTQGILPQNSAGDSFDASAYDAYIVQAVRGTMATNTENTMSLDDIIGMHDVKQVLHEAVTLPLLVPEFFQGLRSPWKAMVLAGPPGTGKTLIARAIASESSSTFFTVSSTDLSSKWRGDSEKIVRLLFELARFYAPSIIFIDEIDTLGGQRGNSGEHEASRRVKSEFLVQMDGSQNKFDSRRVFVLAATNIPWELDEALRRRFEKRIFIPLPDIDARKKLIEKSMEGTPKSDEINYDDLAARTEGFSGADVVSLCRTAAINVLRRYDTKSLRGGELTAAMESLKAELVRNIDFEAALQAVSPSAGPDTMLKCKEWCDSFGAM
stoichiometry N (AUC [2]): 6

B2: Caenorhabditis elegans katanin p60 (E293Q), Walker B mutant, full-length (enzyme, UniProt P34808 1-472, looked up)
chain: MNGDVQSVIRGYLERAQVAKTMSDAGRWNEAGDLLRQLMTDVKSCKISASNRDEHDARNTFLRALEANLKLVQQNVRDEDDLHEAMTRQSGSPEPPADPDVWSKPSPPLPSSSKFGATKKGVGAAGPRPREISKSTSSMSTNPADVKPANPTQGILPQNSAGDSFDASAYDAYIVQAVRGTMATNTENTMSLDDIIGMHDVKQVLHEAVTLPLLVPEFFQGLRSPWKAMVLAGPPGTGKTLIARAIASESSSTFFTVSSTDLSSKWRGDSEKIVRLLFELARFYAPSIIFIDQIDTLGGQRGNSGEHEASRRVKSEFLVQMDGSQNKFDSRRVFVLAATNIPWELDEALRRRFEKRIFIPLPDIDARKKLIEKSMEGTPKSDEINYDDLAARTEGFSGADVVSLCRTAAINVLRRYDTKSLRGGELTAAMESLKAELVRNIDFEAALQAVSPSAGPDTMLKCKEWCDSFGAM
stoichiometry N (AUC [3]): 6
